To fix the notation:
B1: GST-His6-DgrA (natural protein, Bacillus subtilis NCIB 3610, UniProt P38491 1-217, looked up)
chain: MIEIGENVLLEYIEENELKKAKSKAVSIENNELLIAYPVDVVTGRTVILHNDMEVTVEFVGKDEVPYRFISRIKGKVKDKLQMICLEMPPREKMKRIQRRQYVRTDAVLDVQIQPGNEEEIRTLSYNISAGGIAVVLADGLSFQSGESLRLIIRLPEEEHTRQIETEAVVRRIFNDPKSEKRKMTLEYSEIAAGDQQALLQYCIRRQLNKRRKARME
notes: PilZ domain c-di-GMP receptor DgrA of Bacillus subtilis NCIB 3610, residues 1 to 217, full length (construct pPB48); also called GST-His-DgrA; PilZ protein DgrA; source: E. coli BL21(DE3), purified (Ni-NTA, SEC); not shown: GST, N-terminal, kept; His6, N-terminal, kept
B2: His6-DgcK-ΔN175 (domain or fragment, Bacillus subtilis NCIB 3610, UniProt P54595 176-359, looked up)
chain: DHETNAHLLFKQYKFQAHFDFLTGVYNRRKFEETTKALYQQAADTPHFQFALIYMDIDHFKTINDQYGHHEGDQVLKELGLRLKQTIRNTDPAARIGGEEFAVLLPNCSLDKAARIAERIRSTVSDAPIVLTNGDELSVTISLGAAHYPNNTEQPGSLPILADQMLYKAKETGRNRVCFSEKKE
notes: Diguanylate cyclase DgcK of Bacillus subtilis NCIB 3610, soluble domain, residues 176 to 359 (construct pAT02b); also called His-DgcK-ΔN175; soluble domain of DgcK; source: E. coli BL21(DE3), purified (Ni-NTA, SEC); also coexpressed with YdaK-ΔN111 in E. coli BL21(DE3), in lysate; not shown: His6, N-terminal, kept

Assay [1] deals with T1, YdaK-ΔN111 (Bacillus subtilis, UniProt P96585).
T1 construct: soluble degenerate GGDEF domain, residues 112 to 283 (4 TM helices removed), from E. coli BL21(DE3)
The assay can be described thus: hydrogen-deuterium exchange mass spectrometry. Type of assay: binding. The following applies: 50 µM protein, 1 mM c-di-GMP; pH 7.5, 20 mM MgCl2, 25 °C; I-site (RXXD).

The target of another assay is T2, DgcK-ΔN175 (Bacillus subtilis, UniProt P54595).
T2 construct: soluble GGDEF domain, residues 176 to 359 (6 TM helices removed); N-terminal His6 or GST-His6, from E. coli BL21(DE3)
Put plainly: HPLC of nucleotide co-purified with the denatured protein. Type of assay: binding. The following applies: ligand co-purified from E. coli host.

The target of assay [2] is T3, YdaK-ΔN111 (Bacillus subtilis, UniProt P96585, R202A).
T3 construct: soluble degenerate GGDEF domain, residues 112 to 283 (4 TM helices removed), from E. coli BL21(DE3)
T3 sequence (P96585 112-283 R202A): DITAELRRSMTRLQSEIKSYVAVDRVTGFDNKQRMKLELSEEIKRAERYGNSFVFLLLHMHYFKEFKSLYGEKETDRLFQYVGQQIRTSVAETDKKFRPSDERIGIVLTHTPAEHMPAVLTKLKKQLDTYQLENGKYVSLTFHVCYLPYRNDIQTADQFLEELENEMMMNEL
Put plainly: hydrogen-deuterium exchange mass spectrometry. The following applies: 50 µM protein, 1 mM c-di-GMP; pH 7.5, 20 mM MgCl2, 25 °C; I-site mutant, tested for loss of binding.

A further assay addresses T4, DgcP-StrepII (Bacillus subtilis NCIB 3610, UniProt O34325 1-579).
T4 construct: soluble diguanylate cyclase DgcP of Bacillus subtilis NCIB 3610, residues 1 to 579, full length (construct pPB25); also called pPB25; source: E. coli BL21(DE3), purified (StrepTrap HP, SEC); not shown: StrepII, C-terminal, kept
T4 sequence (looked up): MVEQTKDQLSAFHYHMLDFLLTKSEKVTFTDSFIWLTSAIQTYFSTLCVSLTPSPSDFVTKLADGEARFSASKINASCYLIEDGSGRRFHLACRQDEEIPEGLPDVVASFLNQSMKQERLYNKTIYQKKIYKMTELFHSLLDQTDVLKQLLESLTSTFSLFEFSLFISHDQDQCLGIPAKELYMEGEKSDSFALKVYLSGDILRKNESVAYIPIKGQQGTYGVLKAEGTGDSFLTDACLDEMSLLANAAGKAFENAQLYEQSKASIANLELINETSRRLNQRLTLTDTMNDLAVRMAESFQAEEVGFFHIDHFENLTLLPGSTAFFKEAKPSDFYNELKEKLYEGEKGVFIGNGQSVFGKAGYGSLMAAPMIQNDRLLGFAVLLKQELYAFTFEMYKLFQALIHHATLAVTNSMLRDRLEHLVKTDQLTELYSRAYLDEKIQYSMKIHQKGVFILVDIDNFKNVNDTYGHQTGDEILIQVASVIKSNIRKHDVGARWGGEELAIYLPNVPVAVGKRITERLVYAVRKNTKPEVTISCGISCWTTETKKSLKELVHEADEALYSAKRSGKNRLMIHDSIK
Put plainly: pull-down; 2 nmol DgcP-StrepII immobilised on Strep-Tactin-Sepharose, 20 nmol GST-His6-DgrA, with or without 2 mM c-di-GMP; buffer A; elution with 50 mM D-biotin; Coomassie-stained SDS-PAGE. The conditions noted are these: both partners purified.

The target in the assay “GST-His6-DgrA” is B1. Put plainly: pull-down; 2 nmol GST-His6-DgrA (or GST control) immobilised on glutathione-Sepharose beads, 20 nmol His6-DgcK-ΔN175, with or without 2 mM c-di-GMP; 4°C, buffer A; Coomassie-stained SDS-PAGE. The conditions noted are these: both partners purified.
Assay [3] concerns the target B2. The assay can be described thus: pull-down; 2 nmol His6-DgcK-ΔN175 immobilised on nickel-Sepharose beads, 20 nmol prey, with or without added c-di-GMP; buffer A (20 mM HEPES-Na pH 7.5, 250 mM NaCl, 20 mM MgCl2, 20 mM KCl, 0.05% Tween); elution with 500 mM imidazole; Coomassie-stained SDS-PAGE. The conditions noted are these: both partners purified.
The target of assay [4] is B2. The assay can be described thus: pull-down; 2 nmol GST-His6-YdaK-ΔN111 (or GST) immobilised on glutathione-Sepharose 4B, 20 nmol His6-DgcK-ΔN175, with or without added c-di-GMP; 4°C, buffer A (20 mM HEPES-Na pH 7.5, 250 mM NaCl, 20 mM MgCl2, 20 mM KCl, 0.05% Tween); Coomassie-stained SDS-PAGE. The following applies: both partners purified.
A further assay has as its target T5, GST-His6-DgcK-ΔN175 (Bacillus subtilis NCIB 3610, UniProt P54595 176-359).
T5 construct: Diguanylate cyclase DgcK of Bacillus subtilis NCIB 3610, soluble domain, residues 176 to 359 (construct pAT02a); also called pAT02a; source: E. coli BL21(DE3), purified (Ni-NTA, SEC); not shown: GST, N-terminal, kept; His6, N-terminal, kept
T5 sequence (looked up): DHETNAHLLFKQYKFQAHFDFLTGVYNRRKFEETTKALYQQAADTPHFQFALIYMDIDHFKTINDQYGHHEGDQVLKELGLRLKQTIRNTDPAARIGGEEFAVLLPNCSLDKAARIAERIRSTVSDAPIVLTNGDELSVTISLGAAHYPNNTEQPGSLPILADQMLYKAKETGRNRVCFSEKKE
The assay can be described thus: pull-down; 2 nmol GST-His6-DgcK-ΔN175 immobilised on glutathione-Sepharose 4B, 20 nmol His6-YdaK-ΔN111 or its R202A variant, with or without added c-di-GMP; 4°C, buffer A; Coomassie-stained SDS-PAGE. The conditions noted are these: both partners purified.

Six molecules from PMC7064775, “Cyclic di-GMP Signaling in Bacillus subtilis Is Governed by Direct Interactions of Diguanylate Cyclases and Cognate Receptors” (mBio, 2020) can be followed below.

For `Nc1nc2c(ncn2[C@@H]2O[C@@H]3COP(=O)(O)O[C@H]4[C@@H](O)[C@H](n5cnc6c(=O)[nH]c(N)nc65)O[C@@H]4COP(=O)(O)O[C@H]3[C@H]2O)c(=O)[nH]1` [c-di-GMP], at YdaK-ΔN111 [1], the “decrease in H/D exchange” value is given as “presence of c-di-GMP resulted in a strong decrease in H/D exchange in many parts of YdaK”. Also, the loading on DgcK-ΔN175 was ~ 25%. The “no alterations in HDX” value on YdaK-ΔN111 [2] is reported as “indicating the inability of c-di-GMP to bind to this variant”.
B1: in the assay with DgcP-StrepII, the binding result is recorded as “binds”.
B2: the binding result in the assay with GST-His6-DgrA is on record as “binds”.

B3: GST-YdaK-ΔN111 (domain or fragment, Bacillus subtilis NCIB 3610, UniProt P96585 112-283, looked up)
chain: DITAELRRSMTRLQSEIKSYVAVDRVTGFDNKQRMKLELSEEIKRAERYGNSFVFLLLHMHYFKEFKSLYGEKETDRLFQYVGQQIRTSVRETDKKFRPSDERIGIVLTHTPAEHMPAVLTKLKKQLDTYQLENGKYVSLTFHVCYLPYRNDIQTADQFLEELENEMMMNEL
notes: c-di-GMP receptor YdaK of Bacillus subtilis NCIB 3610, soluble domain (degenerated GGDEF domain), residues 112 to 283 (construct pAT03c); also called pAT03c; source: E. coli BL21(DE3), purified (GSTrap FF, SEC); not shown: GST, N-terminal, kept
B3: the binding result with His6-DgcK-ΔN175 [3] is on record as “binds”.

B4: GST-His6-YdaK-ΔN111 (domain or fragment, Bacillus subtilis NCIB 3610, UniProt P96585 112-283, looked up)
chain: DITAELRRSMTRLQSEIKSYVAVDRVTGFDNKQRMKLELSEEIKRAERYGNSFVFLLLHMHYFKEFKSLYGEKETDRLFQYVGQQIRTSVRETDKKFRPSDERIGIVLTHTPAEHMPAVLTKLKKQLDTYQLENGKYVSLTFHVCYLPYRNDIQTADQFLEELENEMMMNEL
notes: c-di-GMP receptor YdaK of Bacillus subtilis NCIB 3610, soluble domain, residues 112 to 283 (construct pAT03a); also called pAT03a; not shown: GST, N-terminal, kept
In the case of B4, in the assay with His6-DgcK-ΔN175 [4], the binding result is listed as “binds”.

B5: His6-YdaK-ΔN111 (domain or fragment, Bacillus subtilis NCIB 3610, UniProt P96585 112-283, looked up)
chain: DITAELRRSMTRLQSEIKSYVAVDRVTGFDNKQRMKLELSEEIKRAERYGNSFVFLLLHMHYFKEFKSLYGEKETDRLFQYVGQQIRTSVRETDKKFRPSDERIGIVLTHTPAEHMPAVLTKLKKQLDTYQLENGKYVSLTFHVCYLPYRNDIQTADQFLEELENEMMMNEL
notes: c-di-GMP receptor YdaK of Bacillus subtilis NCIB 3610, soluble domain, residues 112 to 283 (construct pAT03b); also called native YdaK; pAT03b; source: E. coli BL21(DE3), purified (Ni-NTA, SEC); not shown: His6, N-terminal, kept
Consider B5, for which the binding result with GST-His6-DgcK-ΔN175 is recorded as “binds”.
